Results on two molecules are retold here after PMC6171530 (Nature chemical biology, 2018).

By stoichiometry N is commonly meant the number of molecules, sites or subunits per partner or assembly.

The labels stand for the following.
B2: His6-RNR-α (enzyme, human, UniProt P23921 1-792, looked up)
chain: MHVIKRDGRQERVMFDKITSRIQKLCYGLNMDFVDPAQITMKVIQGLYSGVTTVELDTLAAETAATLTTKHPDYAILAARIAVSNLHKETKKVFSDVMEDLYNYINPHNGKHSPMVAKSTLDIVLANKDRLNSAIIYDRDFSYNYFGFKTLERSYLLKINGKVAERPQHMLMRVSVGIHKEDIDAAIETYNLLSERWFTHASPTLFNAGTNRPQLSSCFLLSMKDDSIEGIYDTLKQCALISKSAGGIGVAVSCIRATGSYIAGTNGNSNGLVPMLRVYNNTARYVDQGGNKRPGAFAIYLEPWHLDIFEFLDLKKNTGKEEQRARDLFFALWIPDLFMKRVETNQDWSLMCPNECPGLDEVWGEEFEKLYASYEKQGRVRKVVKAQQLWYAIIESQTETGTPYMLYKDSCNRKSNQQNLGTIKCSNLCTEIVEYTSKDEVAVCNLASLALNMYVTSEHTYDFKKLAEVTKVVVRNLNKIIDINYYPVPEACLSNKRHRPIGIGVQGLADAFILMRYPFESAEAQLLNKQIFETIYYGALEASCDLAKEQGPYETYEGSPVSKGILQYDMWNVTPTDLWDWKVLKEKIAKYGIRNSLLIAPMPTASTAQILGNNESIEPYTSNIYTRRVLSGEFQIVNPHLLKDLTERGLWHEEMKNQIIACNGSIQSIPEIPDDLKQLYKTVWEISQKTVLKMAAERGAFIDQSQSLNIHIAEPNYGKLTSMHFYGWKQGLKTGMYYLRTRPAANPIQFTLNKEKLKDKEKVSKEEEEKERNTAAMVCSLENRDECLMCGS

For data set [1], the target named is B2. In words: pull-down.
Data set [2] concerns the molecule itself. Description: negative-stain electron microscopy.

B1: His6-HA-HNH&APIM (domain or fragment, UniProt Q5FWF4 929-1079, looked up)
chain: NSWDSRFCSLKCQEEFWIRSNNSYLRAKVFETEHGVCQLCNVNAQELFLRLRDAPKSQRKNLLYATWTSKLPLEQLNEMIRNPGEGHFWQVDHIKPVYGGGGQCSLDNLQTLCTVCHKERTARQAKERSQVRRQSLASKHGSDITRFLVKK
As to B1, the binding result in data set [1] is reported as “binds”.
For the molecule B2, in data set [2], the “stoichiometry N” value is 6.
